Experimental data as given in PMC12834908.

How the values were obtained:
[1] = biological target: eukaryotic elongation factor-2 kinase, wild type, phosphorylated at T348 (eEF-2K^p) (UniProt O00418)
[2] = biological target: S500D-eEF-2K, phosphorylated at T348 (S500D-eEF-2K^p) (UniProt O00418)

Substance: calmodulin (CaM) (from UniProt P0DP23 1-149) (natural protein)
- Ca^2+/CaM-dependent kinase activity kobs (2 μM CaM, 450 μM PepS peptide substrate) [1]: 40 s⁻¹
- Ca^2+/CaM-dependent kinase activity kobs (2 μM CaM, 450 μM PepS peptide substrate) [2]: 33 s⁻¹
